Results reported in publication PMC8442969.

Key:
Experiment in all cases: NMR titration
[1] = biological target: human mono-ubiquitin, N-terminally 6xHis tagged (made in house, for NMR) (human) (UniProt P0CG48)
[2] = biological target: human DSS1 (Deletion of Split-hand/Split-foot 1), GST tag removed (human)
[3] = biological target: human CSNAP (CSN Acidic Protein), GST tag removed (human)

| Substance | Kd [1] [µM] | KD of site UBS2 (apparent) [2] [mM] | KD(app), first of two groups of residues [3] [mM] | KD(app), second of two groups of residues [3] [mM] |
| --- | --- | --- | --- | --- |
| human DSS1 (Deletion of Split-hand/Split-foot 1), GST tag removed (natural protein) | 430 | – | – | – |
| human mono-ubiquitin, N-terminally 6xHis tagged (made in house, for NMR) (from UniProt P0CG48 1-76) (natural protein) | – | 1.8 | 0.8 | 2 |
